Test results published in patent US20170101477A1 (Regeneron, published 2017).

T1: Mycx2-hLepR(ecto)-GPI anchored, on HEK293/hLEPR-GPI cells (human, UniProt P48357 22-839, GPI anchor at the C-terminus)
T1 construct: also called HEK293/Mycx2-hLepR(ecto)-GPI; not shown: N-terminal myc-myc tag
T1 sequence: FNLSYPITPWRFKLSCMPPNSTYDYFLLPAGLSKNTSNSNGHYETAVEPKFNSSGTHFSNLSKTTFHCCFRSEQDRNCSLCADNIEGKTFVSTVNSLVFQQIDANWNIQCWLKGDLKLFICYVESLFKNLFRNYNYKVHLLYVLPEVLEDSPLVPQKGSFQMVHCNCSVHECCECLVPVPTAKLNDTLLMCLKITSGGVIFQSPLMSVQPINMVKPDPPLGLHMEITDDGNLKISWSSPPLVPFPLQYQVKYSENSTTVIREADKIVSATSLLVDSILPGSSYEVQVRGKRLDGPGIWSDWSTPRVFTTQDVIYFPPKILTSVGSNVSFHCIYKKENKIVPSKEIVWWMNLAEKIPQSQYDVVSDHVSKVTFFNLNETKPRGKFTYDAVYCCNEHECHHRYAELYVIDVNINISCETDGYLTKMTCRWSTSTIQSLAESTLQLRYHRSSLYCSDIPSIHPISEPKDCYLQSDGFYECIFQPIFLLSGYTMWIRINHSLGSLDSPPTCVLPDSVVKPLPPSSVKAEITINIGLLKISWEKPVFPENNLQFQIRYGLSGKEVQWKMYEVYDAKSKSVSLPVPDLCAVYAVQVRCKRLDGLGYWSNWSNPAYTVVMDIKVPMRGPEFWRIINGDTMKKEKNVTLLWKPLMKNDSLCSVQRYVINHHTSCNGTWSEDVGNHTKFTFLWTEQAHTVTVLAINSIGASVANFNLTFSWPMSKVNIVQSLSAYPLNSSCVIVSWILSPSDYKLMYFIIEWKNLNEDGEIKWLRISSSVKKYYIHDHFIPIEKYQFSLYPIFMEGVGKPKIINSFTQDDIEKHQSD

T2: full length human LEPR (amino acids 1-1165 of P48357, Isoform B), on cells (human, UniProt P48357 22-1165)
T2 construct: also called hLEPR-FL; HEK293/Stat3-luc/hLEPR-FL
T2 sequence: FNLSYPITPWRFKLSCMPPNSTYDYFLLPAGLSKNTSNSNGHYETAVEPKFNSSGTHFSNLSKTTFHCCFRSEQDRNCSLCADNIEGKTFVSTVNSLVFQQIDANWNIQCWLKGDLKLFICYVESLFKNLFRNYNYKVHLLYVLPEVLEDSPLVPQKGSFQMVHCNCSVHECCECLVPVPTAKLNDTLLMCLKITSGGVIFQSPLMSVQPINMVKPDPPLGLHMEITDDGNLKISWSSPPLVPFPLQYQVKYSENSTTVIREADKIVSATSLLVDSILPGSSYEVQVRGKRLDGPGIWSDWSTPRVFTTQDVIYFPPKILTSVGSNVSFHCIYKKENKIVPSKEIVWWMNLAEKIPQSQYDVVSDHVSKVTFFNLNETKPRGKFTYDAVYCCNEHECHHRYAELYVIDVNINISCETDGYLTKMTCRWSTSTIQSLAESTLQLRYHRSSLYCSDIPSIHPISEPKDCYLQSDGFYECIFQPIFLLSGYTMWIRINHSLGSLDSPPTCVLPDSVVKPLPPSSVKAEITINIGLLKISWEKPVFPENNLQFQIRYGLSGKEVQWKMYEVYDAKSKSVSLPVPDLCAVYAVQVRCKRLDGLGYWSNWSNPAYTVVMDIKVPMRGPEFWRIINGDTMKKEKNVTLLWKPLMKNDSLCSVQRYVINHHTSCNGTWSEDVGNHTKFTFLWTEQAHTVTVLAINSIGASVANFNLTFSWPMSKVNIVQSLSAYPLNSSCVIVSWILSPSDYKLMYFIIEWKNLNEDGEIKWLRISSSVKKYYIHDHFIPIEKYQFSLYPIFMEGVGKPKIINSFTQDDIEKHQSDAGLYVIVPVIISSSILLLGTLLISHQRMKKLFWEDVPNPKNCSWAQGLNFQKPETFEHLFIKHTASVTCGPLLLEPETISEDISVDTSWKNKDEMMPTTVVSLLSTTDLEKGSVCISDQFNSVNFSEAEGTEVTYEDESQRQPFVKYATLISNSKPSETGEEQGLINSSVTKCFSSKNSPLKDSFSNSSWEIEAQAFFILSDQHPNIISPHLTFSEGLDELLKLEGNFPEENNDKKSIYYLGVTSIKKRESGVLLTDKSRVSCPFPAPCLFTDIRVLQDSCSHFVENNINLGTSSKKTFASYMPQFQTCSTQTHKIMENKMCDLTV

T3: human LEPR CRH1 (D1,D2,D3)-MMH (human, UniProt P48357 22-427)
T3 construct: domain: CRH1-Ig (D1,D2,D3); Limits on human LEPR cannot be told from the printed numbers; also called CRH1-Ig (D1, D2, D3); not shown: C-terminal myc-myc hexahistidine tag (amino acids 279-306 of the construct)
T3 sequence (looked up): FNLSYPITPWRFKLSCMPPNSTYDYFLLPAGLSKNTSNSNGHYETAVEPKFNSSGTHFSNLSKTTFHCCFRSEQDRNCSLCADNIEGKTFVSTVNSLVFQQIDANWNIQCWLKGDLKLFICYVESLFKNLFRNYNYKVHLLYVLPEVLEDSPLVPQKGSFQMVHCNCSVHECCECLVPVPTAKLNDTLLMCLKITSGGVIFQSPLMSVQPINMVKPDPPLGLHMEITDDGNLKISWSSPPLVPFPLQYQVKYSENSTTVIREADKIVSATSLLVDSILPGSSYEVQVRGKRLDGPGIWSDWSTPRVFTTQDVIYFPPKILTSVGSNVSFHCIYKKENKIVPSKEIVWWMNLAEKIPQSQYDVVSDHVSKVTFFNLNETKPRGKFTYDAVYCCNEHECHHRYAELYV


Experiments:
[1] = biological target: T4, human LEPR extracellular domain expressed with a C-terminal myc-myc-hexahistidine tag (hLEPR.mmh) (human, UniProt P48357 22-839); test: SPR, mAb over preformed hLEPR-MMH:human Leptin complex
T4 construct: also called human LEPR-MMH; monomeric human LEPR
Description: The entire study was performed in 10 mM HEPES pH 7.4, 150 mM NaCl, 3 mM EDTA, and 0.05% v/v Surfactant Tween-20 (HBS-ET running buffer) at 25° C.

[2] = biological target: T1, Mycx2-hLepR(ecto)-GPI anchored, on …; test: FACS, 10 nM Ab, HEK293/hLEPR-GPI, 1 uM Leptin
Description: (§1) For the FACS analysis, HEK293 parental cells and HEK293/hLEPR-GPI cells were dissociated and plated onto 96-well v-bottom plates at 5×10⁵ cells/well in PBS containing 2% FBS (FACS buffer). […] Cells were subsequently fixed using BD CytoFix™ (Becton Dickinson, #554655), filtered, and analyzed on a HyperCyt Flow Cytometer (Beckman Coulter). Unstained and secondary antibody alone controls were also tested for all cell lines. The results were analyzed using ForeCyt (IntelliCyt) and FlowJo version 10 software to determine the geometric means of fluorescence for viable cells. The geometric mean of fluorescence for each sample was then normalized to the geometric mean of unstained cells to obtain relative binding per condition referred to as “binding ratios”, and these binding ratios were recorded for each antibody tested.

[3] = biological target: T1, Mycx2-hLepR(ecto)-GPI anchored, on …; test: FACS, 70 nM Ab, HEK293/hLEPR-GPI
[4] = biological target: T1, Mycx2-hLepR(ecto)-GPI anchored, on …; test: FACS, 10 nM Ab, HEK293/hLEPR-GPI, no added Leptin
Description: as §1

[5] = biological target: T2, full length human LEPR (amino acids …); test: FACS, 70 nM Ab, HEK293/Stat3-luc/hLEPR-FL
[6] = biological target: T3, human LEPR CRH1 (D1,D2,D3)-MMH; test: Luminex, myc-captured LEPR protein
Description: Aliquots of microspheres with immobilized anti-myc monoclonal antibodies, prepared as described above, were added individually to 1 mL of the each of these protein supernatants. The microspheres were gently mixed, incubated for two hours at 25° C., washed twice with 1 mL of DBPS, centrifuged to remove the supernatant and finally resuspended in 1 mL of DPBS buffer.
From this mixed pool, 75 μL of microspheres were plated per well on a 96 well filter plate (Millipore, Cat. No: MSBVN1250) and mixed with 25 μL of individual anti-human LEPR monoclonal antibodies (0.5 or 5 μg/mL), incubated for two hours at 25° C. and then washed twice with 200 μL of DPBS with 0.05% Tween 20 (washing buffer). […] The Median Fluorescence intensity (MFI) of the microspheres was measured in a Luminex Analyzer.

Binder | 200 nM mAb Bound (RU) [1] [RU] | Binding Ratio [2] [fold] | Binding Ratio [3] [fold] | Binding Ratio [4] [fold] | Binding Ratio [5] [fold] | Luminex MFI [6] [MFI]
H4H16650P2 (antibody, human IgG4, V domains shown, H4H prefix means human IgG4 Fc; Classed as agonist) VH: QVQLVESGGGVVQPGKSLRLSCVASGFTFSSDAMYWVRQAPGKGLEWVAVIYYDGNYQYYEDSVKGRFTISRDNSQNTLDLQMNSLRVDDTAVYFCARLNWDYWYLDLWGRGTLVTVSS VL: not shown | 81 | 3120 | 707 | 2420 | 42 | –
H4H18449P2 (antibody, human IgG4, V domains shown, human IgG4 Fc; summary lists 74/66) VH: EVQLVESGGGLVQPGGSLRLSCVASGFTFNKYDMHWVRQTTGKGLEWVSGIDTDGDTYYPGSVKGRFTISRENAENSLYLQMNGLRVGDTAVYYCARWPWSGFYGAFDIWGQGTMVTVSS VL: not shown | – | 3110 | – | 3370 | – | –
H4H16679P2 (antibody, human IgG4, V domains shown, human IgG4 Fc; Classed as agonist) VH: QVQLVESGGGVVQPGRSLRLSCTASGFTFSSYAMYWVRQAPGKGLEWVSVIYYDGSYKYYADSVKGRFTISRDNSKNTLYLQMDSLRAEDTAVYYCASYNWNYWYFDFWGRGTLVTVSS VL: not shown | 90 | 2220 | 1080 | 2060 | 51 | –
H4H17321P2 (antibody, human IgG4, V domains shown, human IgG4 Fc; Classed as agonist) VH: QVQLVESGGGVVQPGRSLRLSCEASGFSSSDNAMYWVRQAPGKGLEWVSVIYHDGSYKYYEDSVKGRFTIARDNSKNTLYLQMNSLRAEDTAVYYCARYNWNHWYFDVWGRGTLVTVSS VL: not shown | – | – | 1130 | – | 46 | –
H4H18446P2 (antibody, human IgG4, V domains shown, human IgG4 Fc) VH: EVQLVESGGGLVQPGGSLRLSCAASGFTFSNYGMTWVRQAPGKGLEWVSAITGGGGSTYYSNSVKGRFTISRDNSKNTVYLRMNSVRAEDTAVYYCAKYKWNFVDDWGQGTTVTVSS VL: not shown | – | – | – | – | – | 205
H4H18438P2 (antibody, human IgG4, V domains shown, human IgG4 Fc; Classed as potentiator) VH: QVQLVESGGGVVQPGRSLRLSCAASGFSFNTYGMHWVRQAPGKGLEWVTIIWYDGSIKYYADSVKGRFTISRDNSKNTLYLQMNSLRAEDTAVYYCARGGYSGYLYFDYWGQGTLVTVSS VL: not shown | – | 2410 | – | 1490 | – | –
H4H18445P2 (antibody, human IgG4, V domains shown, human IgG4 Fc) VH: QVQLQESGPGLVKPSQTLSLTCTVSGGSISSGGDYWSWIRQLPGKGLEWIGYIYYSGSAYYNPSLKSRGTISIDTSKNQFSLKLTSVTAADTAVYFCVKLRFLEWFLGGWFGPWGQGTLVTVSS VL: not shown | – | 2490 | – | 2020 | – | –
H4H17319P2 (antibody, human IgG4, V domains shown, human IgG4 Fc; Classed as agonist) VH: QVQLVESGGSVVQPGRSLRLSCAASGFTFSTYAMYWVRQTPGKGLEWVAVLYSDGSNKYYIDSVKGRFTISRDTSTNTLYLQMSSLRADDSALYYCARLNWDYWYFDLWGRGTLVTVSS VL: not shown | 92 | – | 1130 | – | 47 | –
H4H18417P2 (antibody, human IgG4, V domains shown, human IgG4 Fc; Classed as potentiator) VH: QVQLVESGGGVVQPGRSLRLSCAASGFTFSTYGMHWVRQAPGKGLEWVSVISYDESNKYYADSVKGRFTISRDNSKNALYLQMNSLRNEDTAVYYCARDRPFGLVTGWFDPWGQGTLVTVSS VL: not shown | – | 2600 | – | 1840 | – | –
